According to patent publication US20200299408A1 (Genentech, published 2020):
“And” between values parts separate entries of the source, which are not always exact repeats. Equal values may be shown once. Read-outs that look alike come from different tables or passages of the source. Blank lines part the entries; values can stand above or below the binder they belong to.

How the values were obtained:
human CD3 on T cells [1] = target: T1, human CD3 on T cells (human, UniProt P07766 22-207); assay: Scatchard; table 'Monovalent Binding Affinity'; the partner arm is not given, the TDB is taken from legend paragraph 149, p-1410 and Figure 16; cells not named
T1 construct: whole, on cells; On cells CD3ε stands in the CD3/TCR complex; also called CD3 antigen; CD3ε

human CD3 on T cells [2] = target: T1, human CD3 on T cells; assay: Scatchard; table headed 'Bivalent Binding Affinity', though its footnote reads 'monovalent binding Kd measured by scatchard'; cells not named
human CD3 on T cells [3] = target: T1, human CD3 on T cells; assay: FACS on Jurkat cells (CD3), anti-huIgG-PE; number printed beside the curve without a quantity name, taken as EC50
Experimental: (§1) Binding affinities for the each of the CD3/CD20 TDBs were tested by Biacore or FACS analysis, as described above for the anti-CD3 antibodies. Briefly, for Biacore binding assays, human CD3εγ was immobilized on Biacore Series S CM5 sensor chip using the amine coupling kit from Biacore and CD3/CD20 TDBs or Fab variants thereof were in the flow through. For FACS binding assays, either Bjab cells (for B cell antigens) or Jurkat cells (for CD3 antigen) were incubated with various concentrations of TDB antibodies at 4° C. for 30 minutes, then cells were washed and incubated with 2nd antibody (anti-huIgG-PE; BD Bioscience) for another 15 minutes, before cells were washed again and ready for FACS analysis.

[4] = target: T2, commercial CD3ε (Creative Biomart, Catalog Number CD3E-2194H) (human, UniProt P07766); assay: binding affinity on commercial CD3ε (Creative Biomart CD3E-2194H); method not stated in the legend
T2 construct: commercial recombinant protein; also called commercial CD3E

[5] = target: T2, commercial CD3ε (Creative Biomart, …); assay: as above; remark: listed apart in the source
cyCD3εγ = target: T3, cyCD3εγ (cynomolgus monkey); assay: monovalent binding affinity, method not stated on the sheet
T3 chain 1: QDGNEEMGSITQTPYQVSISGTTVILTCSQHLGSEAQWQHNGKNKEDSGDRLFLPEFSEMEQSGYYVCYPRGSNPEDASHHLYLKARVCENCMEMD
T3 chain 2: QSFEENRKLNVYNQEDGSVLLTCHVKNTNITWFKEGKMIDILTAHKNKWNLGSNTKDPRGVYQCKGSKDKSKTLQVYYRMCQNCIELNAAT

human CD3 on T cells [6] = target: T1, human CD3 on T cells; assay: FACS on Jurkat cells (CD3), anti-huIgG-PE; number printed beside the curve without a quantity name, taken as EC50; remark: listed apart in the source
Experimental: as §1

human CD3 on T cells [7] = target: T1, human CD3 on T cells; assay: as above; remark: listed apart in the source
Experimental: as §1

Kd (human CD3 on T cells [1]): 318 nM | Kd (human CD3 on T cells [2]): 40 nM
B1: K&H 2H7v16/hu UCHT1vM1 (bispecific antibody, V domains shown)
VH 1: EVQLVESGGGLVQPGGSLRLSCAASGYTFTSYNMHWVRQAPGKGLEWVGAIYPGNGDTSYNQKFKGRFTISVDKSKNTLYLQMNSLRAEDTAVYYCARVVYYSNSYWYFDVWGQGTLVTVSS
VL 1: DIQMTQSPSSLSASVGDRVTITCRASSSVSYMHWYQQKPGKAPKPLIYAPSNLASGVPSRFSGSGSGTDFTLTISSLQPEDFATYYCQQWSFNPPTFGQGTKVEIK
VH 2: EVQLVESGGGLVQPGGSLRLSCAASGYSFTGYTMNWVRQAPGKGLEWVALINPYKGVSTYADSVKGRFTISVDKSKNTAYLQMNSLRAEDTAVYYCARSGYYGDSDWYFDVWGQGTLVTVSS
VL 2: DIQMTQSPSSLSASVGDRVTITCRASQDIRNYLNWYQQKPGKAPKLLIYYTSRLESGVPSRFSGSGSGTDYTLTISSLQPEDFATYYCQQGNTLPWTFGQGTKVEIK
modifications: Knob-into-hole full-length IgG; constant regions are not in the letters.
notes: also called CD3/CD20 TDB 2H7v16/UCHT1vM1

EC50 (human CD3 on T cells [3]): 1.6 µg/mL and 11 nM
B2: CD20KH (2H7v16/21A9) (bispecific antibody, V domains shown)
VH 1: EVQLVESGGGLVQPGGSLRLSCAASGYTFTSYNMHWVRQAPGKGLEWVGAIYPGNGDTSYNQKFKGRFTISVDKSKNTLYLQMNSLRAEDTAVYYCARVVYYSNSYWYFDVWGQGTLVTVSS
VL 1: DIQMTQSPSSLSASVGDRVTITCRASSSVSYMHWYQQKPGKAPKPLIYAPSNLASGVPSRFSGSGSGTDFTLTISSLQPEDFATYYCQQWSFNPPTFGQGTKVEIK
VH 2: EVQLVESGGGVVQPGGSLKLSCAASGFTFSGSAMHWVRQASEKGLEWVGRIRSRANSYATAYAASVKDRFTISRDNSKNTAYLQMNSLKTEDTAVYYCIRDTMVRGIDYWGQGTLVTVSS
VL 2: not shown
modifications: Knob-into-hole full-length IgG; constant regions are not in the letters.
notes: also called CD3/CD20 TDB 2H7v16/21A9

Kd (human CD3 on T cells [2]): 300 nM
B3: K&H 2H7v16/hu UCHT1v1 (bispecific antibody, V domains shown)
VH 1: EVQLVESGGGLVQPGGSLRLSCAASGYTFTSYNMHWVRQAPGKGLEWVGAIYPGNGDTSYNQKFKGRFTISVDKSKNTLYLQMNSLRAEDTAVYYCARVVYYSNSYWYFDVWGQGTLVTVSS
VL 1: DIQMTQSPSSLSASVGDRVTITCRASSSVSYMHWYQQKPGKAPKPLIYAPSNLASGVPSRFSGSGSGTDFTLTISSLQPEDFATYYCQQWSFNPPTFGQGTKVEIK
VH 2: EVQLVESGGGLVQPGGSLRLSCAASGYSFTGYTMNWVRQAPGKGLEWVALINPYKGVTTYADSVKGRFTISVDKSKNTAYLQMNSLRAEDTAVYYCARSGYYGDSDWYFDVWGQGTLVTVSS
VL 2: DIQMTQSPSSLSASVGDRVTITCRASQDIRNYLNWYQQKPGKAPKLLIYYTSRLESGVPSRFSGSGSGTDYTLTISSLQPEDFATYYCQQGNTLPWTFGQGTKVEIK
modifications: Knob-into-hole full-length IgG; constant regions are not in the letters.
notes: also called CD3/CD20 TDB 2H7v16/UCHT1v1

Kd [4]: 1.1 nM
B4: murine 41D9 (antibody, V domains shown)
VH: QIQLVQSGPELKKPGETVKISCKASGYTFTNYGMNWVKQAPGKGLKWMGWINTNTGKPTYAEEFKGRFVFSLETSASTTYLQINNLKNEDTATYFCARRGDYRYAWFLYWGQGTLVTVSA
VL: QAVVTQESALTTSPGGTVILTCRSSTGAVTTSNYANWVQEKPDHLFTGLIGGTSNRAPGVPVRFSGSLIGDKAALTITGAQTEDDAMYFCALWYSTHFVFGGGTKVTV
notes: also called 41D9a

Kd [5]: 0.75 nM
B5: murine 38E4 (antibody, V domains shown)
VH: QVQLQQSGPELVKPGASVTISCTASGFTFTSYYIHWVRQRPGQGLEWIGWIYPENDNTKYNEKFKDKATLTADTSSSTAYMQLSSLTSEDSAVYYCARDGYSRYYFDYWGQGTTLTVSS
VL: DIVMTQSPSFLAVSAGEKVTMSCKSSQSLLNSRTRKNYLAWYQQRPGQSPKLLIYWTSTRKSGVPDRFTGSGSGTDFTLTISSVQAEDLAIYYCKQSFILRTFGGGTKLEIK

Kd (cyCD3εγ): 12 nM
B6: SP34v52 Fab (Fab, V domains shown)
VH: EVQLVESGGGLVQPGGSLRLSCAASGFTFNTYAMNWVRQAPGKGLEWVARIRSKYNNYATYYADSVKDRFTISRDDSKNTLYLQMNSLRAEDTAVYYCVRHGNFGNSYVSWFAYWGQGTLVTVSS
VL: EAVVTQEPSLTVSPGGTVTLTCRSSTGAVTTSNYANWVQQKPGQAPRGLIGGTNKRAPWTPARFSGSLLGGKAALTLSGAQPEDEAEYYCALWYSNLWVFGGGTKLTVL

Kd [5]: 0.5 nM
B7: humanized 38E4 variant: VH1 graft + R71A / K4 graft + P43S (antibody, V domains shown)
VH: EVQLVQSGAEVKKPGASVKVSCKASGFTFTSYYIHWVRQAPGQGLEWIGWIYPENDNTKYNEKFKDRVTITADTSTSTAYLELSSLRSEDTAVYYCARDGYSRYYFDYWGQGTLVTVSS
VL: DIVMTQSPDSLAVSLGERATINCKSSQSLLNSRTRKNYLAWYQQKPGQSPKLLIYWTSTRKSGVPDRFSGSGSGTDFTLTISSLQAEDVAVYYCKQSFILRTFGQGTKVEIK

EC50 (human CD3 on T cells [6]): 1.25 µg/mL and 8.3 nM | EC50 (human CD3 on T cells [3]): 1.6 µg/mL and 11 nM | EC50 (human CD3 on T cells [7]): 1.21 µg/mL
B8: KH CD20 2H7v16/hu40G5c (bispecific antibody, V domains shown)
VH 1: EVQLVESGGGLVQPGGSLRLSCAASGYTFTSYNMHWVRQAPGKGLEWVGAIYPGNGDTSYNQKFKGRFTISVDKSKNTLYLQMNSLRAEDTAVYYCARVVYYSNSYWYFDVWGQGTLVTVSS
VL 1: DIQMTQSPSSLSASVGDRVTITCRASSSVSYMHWYQQKPGKAPKPLIYAPSNLASGVPSRFSGSGSGTDFTLTISSLQPEDFATYYCQQWSFNPPTFGQGTKVEIK
VH 2: EVQLVQSGAEVKKPGASVKVSCKASGYTFTNYYIHWVRQAPGQGLEWIGWIYPGDGNTKYNEKFKGRATLTADTSTSTAYLELSSLRSEDTAVYYCARDSYSNYYFDYWGQGTLVTVSS
VL 2: DIVMTQSPDSLAVSLGERATINCKSSQSLLNSRTRKNYLAWYQQKPGQPPKLLIYWASTRESGVPDRFSGSGSGTDFTLTISSLQAEDVAVYYCTQSFILRTFGQGTKVEIK
modifications: Knob-into-hole full-length IgG; constant regions are not in the letters.
notes: also called KH CD20 2H7v16/40G5c; CD20KH (2H7v16/40G5c)
